Reference: patent publication US20220144940A1 (VIELA BIO, published 2022)
“And” between values parts separate entries of the source, which are not always exact repeats. Equal entries are not always repeated.

How the values were obtained:
[1] = target: T1, HA-tagged human ILT7 on CT-550 cells (human, UniProt P59901 24-499); test: cell-based or functional assay
cynomolgus ILT7 [2] = target: T2, cynomolgus ILT7 (cynomolgus, UniProt P59901 24-499 (human entry)); test: flow cytometry on cynomolgus ILT7-expressing cells, bottom panel, table 'Ec50 (pM)'
T2 construct: also called cyno ILT7; cynomolgus monkey ILT7
T2 sequence (P59901 other isoform, or with tags, fused parts or gaps limits assumed): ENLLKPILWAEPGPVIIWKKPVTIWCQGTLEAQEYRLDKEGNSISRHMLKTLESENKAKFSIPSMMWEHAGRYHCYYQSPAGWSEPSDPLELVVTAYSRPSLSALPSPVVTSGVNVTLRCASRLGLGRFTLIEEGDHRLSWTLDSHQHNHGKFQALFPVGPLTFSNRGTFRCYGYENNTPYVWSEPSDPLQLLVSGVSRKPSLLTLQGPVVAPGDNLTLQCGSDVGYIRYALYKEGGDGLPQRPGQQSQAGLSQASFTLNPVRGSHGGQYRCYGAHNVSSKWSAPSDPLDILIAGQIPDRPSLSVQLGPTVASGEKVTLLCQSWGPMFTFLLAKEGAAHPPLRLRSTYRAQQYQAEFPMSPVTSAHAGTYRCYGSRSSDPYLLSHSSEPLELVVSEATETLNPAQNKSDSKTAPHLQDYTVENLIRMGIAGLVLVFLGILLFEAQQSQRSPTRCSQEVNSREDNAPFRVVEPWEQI
Method: (§1) Binding of anti-ILT7 variants and isotype controls on human and cynomolgus ILT7 was assessed by flow cytometry analysis using CT-550 and cynoILT7 CT-125 cells respectively. CT-125 cells were used as control. Cells were resuspended in Blocking Buffer (PBS supplemented with 10% FBS) at a concentration of 5 million cells per mL and transferred into a round-bottom 96-well plates (BD Falcon™ Clear Microtest Plate, BD Biosciences) at 100 μL per well. Anti-ILT7 variants and control antibodies were added onto the cells for 30 min at 4° C. on a plate shaker. Cells were washed three times with PBS and resuspended in Blocking Buffer (100 μL/well). Human IgG binding on cell surface was detected using a secondary anti-human IgG antibody conjugated to DyLight 649 (1 in 1000 dilution). Cells were incubated in the dark for 30 min at 4° C. on a plate shaker. Cells were washed three times with PBS and surface fluorescence was acquired using LSRII Flow Cytometry System and FACSDiva Software (both from BD Biosciences).

[3] = target: T1, HA-tagged human ILT7 on CT-550 cells; test: flow cytometry on human ILT7-expressing cells, top panel, table 'Ec50 (pM)'
cynomolgus ILT7 [4] = target: T2, cynomolgus ILT7; test: flow cytometry on CynoILT7 CT-125 cells (cynomolgus ILT7), bottom panel, table 'Ec50 (pM)'
Method: as §1

[5] = target: T1, HA-tagged human ILT7 on CT-550 cells; test: flow cytometry on CT-550 cells (human ILT7), top panel, table 'Ec50 (pM)'
Method: as §1

cynomolgus ILT7 [6] = target: T2, cynomolgus ILT7; test: cell-based or functional assay
[7] = target: T1, HA-tagged human ILT7 on CT-550 cells; test: flow cytometry on CT-550 cells expressing human ILT7, anti-human IgG DyLight 649 detection; table 'Mean Ec50 (nM)', n = 2
Method: as §1
In order to determine the binding EC50 of ILT70019, ILT70028, ILT70052, ILT70076, ILT70080, ILT70083, ILT70089, ILT70100, ILT70137, ILT70142 and ILT70144 on cells expressing human ILT7, the candidates were screened for binding on CT-550 cells by flow cytometry. ILT70080 (EC₅₀=0.28 nM), ILT70083 (EC₅₀=0.37 nM), ILT70137 (EC₅₀=0.41 nM), ILT70144, ILT70142, ILT70052, and ILT70100 bound to human ILT7-expressing cells. […] The anti-ILT7 antibodies 7C7 (7C7 is described above in Example 1) and SBI33 (SBI33 refers to the anti-ILT7 antibody ILT7#33 provided in U.S. Published Application No. 2009/0280128) were used as positive controls.

T1 sequence (P59901 24-499): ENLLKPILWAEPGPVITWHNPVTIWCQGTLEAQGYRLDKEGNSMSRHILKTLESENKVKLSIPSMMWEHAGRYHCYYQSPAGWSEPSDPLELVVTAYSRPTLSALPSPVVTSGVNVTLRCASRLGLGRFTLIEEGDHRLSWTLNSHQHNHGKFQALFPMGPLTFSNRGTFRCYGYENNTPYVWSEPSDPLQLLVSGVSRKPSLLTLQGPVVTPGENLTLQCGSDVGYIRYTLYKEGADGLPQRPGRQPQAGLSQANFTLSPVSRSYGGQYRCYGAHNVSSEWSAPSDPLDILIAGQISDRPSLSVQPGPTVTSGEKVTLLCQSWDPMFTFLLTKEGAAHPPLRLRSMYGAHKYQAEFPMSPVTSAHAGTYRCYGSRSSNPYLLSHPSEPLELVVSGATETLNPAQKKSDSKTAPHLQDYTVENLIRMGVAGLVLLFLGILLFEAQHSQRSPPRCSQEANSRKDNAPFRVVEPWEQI

| Binder | ADCC EC50 [1] | EC50 (cynomolgus ILT7 [2]) | EC50 [3] | EC50 (cynomolgus ILT7 [4]) | EC50 [5] | ADCC EC50 (cynomolgus ILT7 [6]) | EC50 [7] |
| --- | --- | --- | --- | --- | --- | --- | --- |
| ILT70083.1 (antibody, V domains shown) VH: EVQLLESGGGLVQPGGSLRLSCAASGFTFSSYAMSWVRQAPGKGLEWVSAISGSGGSTYYADSVKGWFTISRDNSKNTLYLQMNSLRAEDTAVYYCARRTYYYDSDGHSDVFDIWGRGTLVTVSS VL: QSVVTQPPSVSAAPGQKVTISCSGSASNIGSNFVSWYQQLPGTAPKLLIYDNDKRDLGIPDRFSASISSTSATLGITGLQTGDEADYYCGTWDTSLTVGVFGGGTKLTVL | > 0.089 nM | – | – | – | – | – | – |
| ILT70083.2 (antibody, V domains shown, Engineered (germlined) IgG1 variant of ILT70083) VH: EVQLLESGGGLVQPGGSLRLSCAASGFTFSSYAMSWVRQAPGKGLEWVSAISGSGGSTYYADSVKGWFTISRDNSKNTLYLQMNSLRAEDTAVYYCARRTYYYDSDGHSDVFDIWGRGTLVTVSS VL: QSVLTQPPSVSAAPGQKVTISCSGSASNIGSNFVSWYQQLPGTAPKLLIYDNDKRDLGIPDRFSASISSTSATLGITGLQTGDEADYYCGTWDTSLTVGVFGGGTKLTVL | > 0.089 nM | 15 nM | 0.863 nM | – | – | – | – |
| ILT70080.1 (antibody, V domains shown, Engineered (germlined) variant of ILT70080, tested as IgG1) VH: QVQLVQSGAEVKKPGSSVKVSCKASGDSFRNYAVSWVRQAPGQGLEWMGAMMPSFGTREHSQQFQGRVTLTADESTSTAYMELSSLRSEDTAVYYCAGSRDYNAYHFWTGPPDFWGRGTLVTVSS VL: SYVLTQPPSVSVAPGKTARITCGGDSVGSTSVHWYQQKPGQAPVMVMFYNSDRPSGIPERFSGSISGNTATLTISRVEAGDEADYYCQVWDTSSDHPEFGGGTKLTVL | < 0.0141 nM and 0.008 nM and 0.01 nM | – | – | 0.463 nM | 0.201 nM | – | – |
| ILT70080.5 (antibody, V domains shown, Engineered (germlined) variant of ILT70080, tested as IgG1) VH: QVQLVQSGAEVKKPGSSVKVSCKASGDSFRNYAVSWVRQAPGQGLEWMGAMMPSFGTREHSQQFQGRVTLTADESTSTAYMELSSLRSEDTAVYYCAGSRDYNAYHFWTGPPDFWGRGTLVTVSS VL: SYVLTQPPSVSVAPGKTARITCGGDSVGSTSVHWYQQKPGQAPVMVMFYNSDRPSGIPERFSGSNSGNTATLTISRVEAGDEADYYCQVWDTSSDHPEFGGGTKLTVL | < 0.0141 nM and 0.0086 nM | – | – | 0.612 nM | 0.503 nM | – | – |
| ILT70080.3 (antibody, V domains shown, Engineered (germlined) variant of ILT70080, tested as IgG1) VH: QVQLVQSGAEVKAPGTSVKVSCKASGDSFRNYAVSWVRQAPGQGLEWMGAMMPSFGTREHSQQFQGRVTLSADESTSTAYMELSSLRSEDTAVYYCAGSRDYNAYHFWTGPPDFWGRGTLVTVSS VL: SYVLTQPPSVSVAPGKTARITCGGDSVGSTSVHWYQQKPGQAPVMVMFYNSDRPSGIPERFSGSISGNTATLTISRVEAGDEADYYCQVWDTSSDHPEFGGGTKLTVL | < 0.0141 nM and 0.011 nM | – | – | 0.467 nM | 0.198 nM | – | – |
| ILT70080.7 (antibody, V domains shown, Engineered (germlined) variant of ILT70080, tested as IgG1) VH: QVQLVQSGAEVKKPGSSVKVSCKASGDSFRNYAVSWVRQAPGQGLEWMGAMMPSFGTREHSQQFQGRVTLTADESTSTAYMELSSLRSEDTAVYYCAGSRDYNAYHFWTGPPDFWGRGTLVTVSS VL: SYVLTQPPSVSVAPGKTARITCGGDSVGSTSVHWYQQKPGQAPVLVMFYNSDRPSGIPERFSGSNSGNTATLTISRVEAGDEADYYCQVWDTSSDHPEFGGGTKLTVL | < 0.0141 nM and 0.0078 nM | – | – | 0.405 nM | 0.229 nM | – | – |
| ILT70080.2 (antibody, V domains shown, Engineered (germlined) variant of ILT70080, tested as IgG1) VH: QVQLVQSGAEVKKPGSSVKVSCKASGDSFRNYAVSWVRQAPGQGLEWMGAMMPSFGTREHSQQFQGRVTLSADESTSTAYMELSSLRSEDTAVYYCAGSRDYNAYHFWTGPPDFWGRGTLVTVSS VL: SYVLTQPPSVSVAPGKTARITCGGDSVGSTSVHWYQQKPGQAPVMVMFYNSDRPSGIPERFSGSISGNTATLTISRVEAGDEADYYCQVWDTSSDHPEFGGGTKLTVL | < 0.0141 nM | – | – | 0.503 nM | 0.225 nM | – | – |
| ILT70080.4 (antibody, V domains shown, Engineered (germlined) variant of ILT70080, tested as IgG1) VH: QVQLVQSGAEVKAPGTSVKVSCKASGDSFRNYAVSWVRQAPGQGLEWMGAMMPSFGTREHSQQFQGRVTLSADESTSTAYMELSSLRSEDTAVYYCAGSRDYNAYHFWTGPPDFWGRGTLVTVSS VL: SYELTQPPSVSVAPGKTAKISCGGDSVGSTSVHWYQQKPGQAPVMVMFYNSDRPSGIPERFSGSISGNTATLTISRVEAGDEADYYCQVWDTSSDHPEFGGGTKLTVL | < 0.0141 nM and 0.0119 nM | – | – | 0.597 nM | 0.337 nM | – | – |

Further lines, results first:

| ADCC EC50 [1] | EC50 (cynomolgus ILT7 [2]) | EC50 [3] | EC50 (cynomolgus ILT7 [4]) | EC50 [5] | ADCC EC50 (cynomolgus ILT7 [6]) | EC50 [7] | Binder |
| --- | --- | --- | --- | --- | --- | --- | --- |
| > 0.089 nM | 0.777 nM | 0.596 nM | – | – | – | – | ILT70083.3 (antibody, V domains shown, Engineered (germlined) IgG1 variant of ILT70083) VH: EVQLLESGGGLVQPGGSLRLSCAASGFTFSSYAMSWVRQAPGKGLEWVSAISGSGGSTYYADSVKGWFTISRDNSKNTLYLQMNSLRAEDTAVYYCARRTYYYDSDGHSDVFDIWGRGTLVTVSS VL: QSVVTQPPSVSAAPGQKVTISCSGSASNIGSNFVSWYQQLPGTAPKLLIYDNDKRDLGIPDRFSGSKSGTSATLGITGLQTGDEADYYCGTWDTSLTVGVFGGGTKLTVL |
| > 0.089 nM | 9.47 nM | 0.905 nM | – | – | – | – | ILT70083.7 (antibody, V domains shown, Engineered (germlined) IgG1 variant of ILT70083) VH: not shown VL: QSVLTQPPSVSAAPGQKVTISCSGSASNIGSNFVSWYQQLPGTAPKLLIYDNDKRDLGIPDRFSASISSTSATLGITGLQTGDEADYYCGTWDTSLTVGVFGGGTKLTVL |
| > 0.089 nM | 2.28 nM | 0.5 nM | – | – | – | – | ILT70083.5 (antibody, V domains shown, Engineered (germlined) IgG1 variant of ILT70083) VH: not shown VL: QSVVTQPPSVSAAPGQKVTISCSGSASNIGSNFVSWYQQLPGRAPKLLIYDNDKRDLGIPDRFSASISSTSAALAITGLQTEDEADYYCGTWDTSLTVGVFGGGTKLTVL |
| > 0.089 nM | 0.957 nM | 0.54 nM | – | – | – | – | ILT70083.9 (antibody, V domains shown, Engineered (germlined) IgG1 variant of ILT70083) VH: not shown VL: QSVLTQPPSVSAAPGQKVTISCSGSASNIGSNFVSWYQQLPGTAPKLLIYDNDKRDLGIPDRFSGSKSGTSATLGITGLQTGDEADYYCGTWDTSLTVGVFGGGTKLTVL |
| > 0.089 nM | 0.62 nM | 0.353 nM | – | – | – | – | ILT70083.4 (antibody, V domains shown, Engineered (germlined) IgG1 variant of ILT70083) VH: EVQLLESGGGLVQPGGSLRLSCAASGFTFSSYAMSWVRQAPGKGLEWVSAISGSGGSTYYADSVKGWFTISRDNSKNTLYLQMNSLRAEDTAVYYCARRTYYYDSDGHSDVFDIWGRGTLVTVSS VL: QSVLTQPPSVSAAPGQKVTISCSGSASNIGSNFVSWYQQLPGTAPKLLIYDNDKRDLGIPDRFSGSKSGTSATLGITGLQTGDEADYYCGTWDTSLTVGVFGGGTKLTVL |
| > 0.089 nM | 0.711 nM | 0.437 nM | – | – | – | – | ILT70083.8 (antibody, V domains shown, Engineered (germlined) IgG1 variant of ILT70083) VH: not shown VL: QSVVTQPPSVSAAPGQKVTISCSGSASNIGSNFVSWYQQLPGTAPKLLIYDNDKRDLGIPDRFSGSKSGTSATLGITGLQTGDEADYYCGTWDTSLTVGVFGGGTKLTVL |
| > 0.089 nM | 1.6 nM | 0.516 nM | – | – | – | – | ILT70083.6 (antibody, V domains shown, Engineered (germlined) IgG1 variant of ILT70083) VH: not shown VL: QSVVTQPPSVSAAPGQKVTISCSGSASNIGSNFVSWYQQLPGTAPKLLIYDNDKRDLGIPDRFSASISSTSATLGITGLQTGDEADYYCGTWDTSLTVGVFGGGTKLTVL |
| – | – | – | – | – | 0.058 nM | 2.03 nM | ILT70142 (antibody, V domains shown) VH: QVQLVQSGAEVKKPGASVKVSCKASGYTFTSYGISWVRQAPGQGLEWMGWISAYNGNTNYAQKLQGRVTMTRDTSISTAYMELSRLRSDDTAVYYCARNGLWGWDSDAFDIWGQGTTVTVSS VL: QSVLTQPPSVSAAPGQKVTISCSGSSSNIGNNYVSWYQQLPGTAPKLLIYDNNKRPSGIPDRFSGSKSGTSATLGITGLQTGDEADYYCGTWDSSLSAGVFGTGTQLTVL |
